Assay results: IntAct's records for PubMed 18488041

B1: Proto-oncogene vav (Mus musculus), P27870 (parent)
chain: MELWRQCTHWLIQCRVLPPSHRVTWEGAQVCELAQALRDGVLLCQLLNNLLPQAINLREVNLRPQMSQFLCLKNIRTFLSTCCEKFGLKRSELFEAFDLFDVQDFGKVIYTLSALSWTPIAQNKGIMPFPTEDSALNDEDIYSGLSDQIDDTAEEDEDLYDCVENEEAEGDEIYEDLMRLESVPTPPKMTEYDKRCCCLREIQQTEEKYTDTLGSIQQHFMKPLQRFLKPQDMETIFVNIEELFSVHTHFLKELKDALAGPGATTLYQVFIKYKERFLVYGRYCSQVESASKHLDQVATAREDVQMKLEECSQRANNGRFTLRDLLMVPMQRVLKYHLLLQELVKHTQDATEKENLRLALDAMRDLAQCVNEVKRDNETLRQITNFQLSIENLDQSLANYGRPKIDGELKITSVERRSKTDRYAFLLDKALLICKRRGDSYDLKASVNLHSFQVRDDSSGERDNKKWSHMFLLIEDQGAQGYELFFKTRELKKKWMEQFEMAISNIYPENATANGHDFQMFSFEETTSCKACQMLLRGTFYQGYRCYRCRAPAHKECLGRVPPCGRHGQDFAGTMKKDKLHRRAQDKKRNELGLPKMEVFQEYYGIPPPPGAFGPFLRLNPGDIVELTKAEAEHNWWEGRNTATNEVGWFPCNRVHPYVHGPPQDLSVHLWYAGPMERAGAEGILTNRSDGTYLVRQRVKDTAEFAISIKYNVEVKHIKIMTSEGLYRITEKKAFRGLLELVEFYQQNSLKDCFKSLDTTLQFPYKEPERRAISKPPAGSTKYFGTAKARYDFCARDRSELSLKEGDIIKILNKKGQQGWWRGEIYGRIGWFPSNYVEEDYSEYC

Variants of: B1
Conditions: with RAC1, P63000-1

| Variant | effect of a mutation on the interaction |
| --- | --- |
| K208A | increasing interaction |
| Y174F | increasing interaction |
